From publication PMC6238587, “Molecular analysis of human Ero1 reveals novel regulatory mechanisms for oxidative protein folding” (Life Science Alliance, 2018)
Blank lines part the entries; values can stand above or below the binder they belong to.

B1: human Ero1β, wild type, N-terminal His tag (Q34-R467, natural D129V and H465Q variant) (enzyme, UniProt Q86YB8 34-467, looked up)
chain: QVTGVLDDCLCDIDSIDNFNTYKIFPKIKKLQERDYFRYYKVNLKRPCPFWAEDGHCSIKDCHVEPCPESKIPVGIKAGHSNKYLKMANNTKELEVCEQANKLGAINSTLSNQSKEAFIDWARYDDSRDHFCELDDERSPAAQYVDLLLNPERYTGYKGTSAWRVWNSIYEENCFKPRSVYRPLNPLAPSRGEDDGESFYTWLEGLCLEKRVFYKLISGLHASINLHLCANYLLEETWGKPSWGPNIKEFKHRFDPVETKGEGPRRLKNLYFLYLIELRALSKVAPYFERSIVDLYTGNAEEDADTKTLLLNIFQDTKSFPMHFDEKSMFAGDKKGAKSLKEEFRLHFKNISRIMDCVGCDKCRLWGKLQTQGLGTALKILFSEKEIQKLPENSPSKGFQLTRQEIVALLNAFGRLSTSIRDLQNFKVLLQQSR
modifications: (phospho)gluconoylation of the N-terminal His tag, gluconoylated species the major state
notes: human Ero1β, mature, residues Q34-R467, natural D129V and H465Q variant; With co-expressed PDI it purifies as a heterodimer; also called CCCC; source: E. coli BL21(DE3)ΔtrxAΔtrxC with CyDisCo components co-expressed; in lysate, and purified (cobalt IMAC, anion exchange, size exclusion)
B2: human Ero1α, wild type, N-terminal His tag (E24-H468) (enzyme, UniProt Q96HE7 24-468, looked up)
chain: EEQPPETAAQRCFCQVSGYLDDCTCDVETIDRFNNYRLFPRLQKLLESDYFRYYKVNLKRPCPFWNDISQCGRRDCAVKPCQSDEVPDGIKSASYKYSEEANNLIEECEQAERLGAVDESLSEETQKAVLQWTKHDDSSDNFCEADDIQSPEAEYVDLLLNPERYTGYKGPDAWKIWNVIYEENCFKPQTIKRPLNPLASGQGTSEENTFYSWLEGLCVEKRAFYRLISGLHASINVHLSARYLLQETWLEKKWGHNITEFQQRFDGILTEGEGPRRLKNLYFLYLIELRALSKVLPFFERPDFQLFTGNKIQDEENKMLLLEILHEIKSFPLHFDENSFFAGDKKEAHKLKEDFRLHFRNISRIMDCVGCFKCRLWGKLQTQGLGTALKILFSEKLIANMPESGPSYEFHLTRQEIVSLFNAFGRISTSVKELENFRNLLQNIH
modifications: (phospho)gluconoylation of the N-terminal His tag, gluconoylated species the major state
notes: human Ero1α, mature, residues E24-H468; With co-expressed PDI it purifies as a heterodimer; also called endoplasmic reticulum oxidoreductin 1 alpha; CCCC; source: E. coli BL21(DE3)ΔtrxAΔtrxC with CyDisCo components co-expressed; in lysate, and purified (cobalt IMAC, anion exchange, size exclusion)
B3: human PDI, wild type, non-tagged, purified (enzyme)
chain: not shown
B6: human PDI with three consecutive FLAG tag sequences inserted before the ER retention signal, non-His-tagged (enzyme)
chain: not shown
notes: human PDI, mature, codon-optimized; residues after the TEV site probably stay on the protein; also called PDI3FLAG; source: E. coli, purified (cobalt IMAC, TEV protease cleavage, anion exchange); not shown: 3xFLAG, internal (after residue 503), kept; His6, N-terminal, cleaved

Experiments:
[1] = molecular target: B3; assay: pull-down; PDI exchange assay: 1 μM His-tagged Ero1–PDI heterodimer with non-His-tagged PDI, PDI3FLAG or other PDI family member (1:1 or 10:1), 1 h at RT, 20 mM sodium phosphate pH 7.3, 150 mM NaCl; Ni-NTA spin columns with 10 mM imidazole; reducing SDS–PAGE; settings: both partners purified
[2] = molecular target: B6; assay: pull-down; PDI exchange assay with the redox state of both components fixed by GSSG before mixing; settings: both partners purified
[3] = molecular target: His-tagged Ero1β–PDI heterodimer (human, UniProt Q86YB8 34-467; P07237 18-508, D129V | H465Q, (phospho)gluconoylation of the N-terminal His tag, gluconoylated species the major state); assay: cell-based or functional assay
Sequence of His-tagged Ero1β–PDI heterodimer (P07237 18-508, stated change not applied, one chain of several): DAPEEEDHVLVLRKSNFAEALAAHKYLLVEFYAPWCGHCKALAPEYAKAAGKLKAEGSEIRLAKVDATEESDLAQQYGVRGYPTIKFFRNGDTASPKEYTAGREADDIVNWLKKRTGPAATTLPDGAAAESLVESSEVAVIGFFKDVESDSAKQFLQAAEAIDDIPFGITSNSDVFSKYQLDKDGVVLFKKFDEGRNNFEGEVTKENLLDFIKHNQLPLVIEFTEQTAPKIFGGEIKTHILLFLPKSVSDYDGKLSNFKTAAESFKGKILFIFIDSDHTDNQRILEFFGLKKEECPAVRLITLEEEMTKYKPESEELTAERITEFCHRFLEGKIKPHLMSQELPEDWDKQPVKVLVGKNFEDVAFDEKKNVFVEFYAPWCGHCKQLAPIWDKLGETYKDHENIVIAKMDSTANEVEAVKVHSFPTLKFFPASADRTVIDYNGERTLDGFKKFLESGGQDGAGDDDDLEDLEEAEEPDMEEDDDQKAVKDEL

[4] = molecular target: His-tagged Ero1α–PDI heterodimer (human, UniProt Q96HE7 24-468; P07237 18-508, (phospho)gluconoylation of the N-terminal His tag, gluconoylated species the major state); assay: cell-based or functional assay
Sequence of His-tagged Ero1α–PDI heterodimer (P07237 18-508, one chain of several): as the sequence (P07237 18-508, stated change not applied, one chain of several) above

[5] = molecular target: B1; assay: pull-down; His-tagged Ero1 co-expressed with untagged PDI (CyDisCo) in E. coli; large-scale purification by cobalt IMAC, anion exchange and size-exclusion chromatography; SDS–PAGE; settings: partners not purified
[6] = molecular target: B2; assay: as above; settings: partners not purified
[7] = molecular target: T1, human Ero1α C104A/C131A, N-terminal His tag (human, UniProt Q96HE7 24-468, C104A | C131A); assay: as above; settings: partners not purified
T1 construct: human Ero1α, mature, residues E24-H468; also called CCAA (h.a.); source: E. coli BL21(DE3)ΔtrxAΔtrxC with CyDisCo (Erv1p, PDI) co-expressed; in lysate, and purified
T1 sequence (looked up): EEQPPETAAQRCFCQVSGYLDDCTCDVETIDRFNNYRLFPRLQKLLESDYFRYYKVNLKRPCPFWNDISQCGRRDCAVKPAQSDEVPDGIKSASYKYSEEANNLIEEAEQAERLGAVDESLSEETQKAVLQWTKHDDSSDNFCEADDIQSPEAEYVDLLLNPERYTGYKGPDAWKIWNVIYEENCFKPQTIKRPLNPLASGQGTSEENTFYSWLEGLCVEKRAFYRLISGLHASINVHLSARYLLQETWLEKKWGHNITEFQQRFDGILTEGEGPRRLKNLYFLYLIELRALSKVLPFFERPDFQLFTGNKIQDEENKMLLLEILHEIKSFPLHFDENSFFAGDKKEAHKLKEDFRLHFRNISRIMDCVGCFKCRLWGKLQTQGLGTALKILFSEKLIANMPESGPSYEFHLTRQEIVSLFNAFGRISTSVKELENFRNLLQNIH

[8] = molecular target: T2, human Ero1β C100/130A, N-terminal His tag (human, UniProt Q86YB8 34-467, D129V | H465Q | C100/130A | C100/130A); assay: as above; settings: partners not purified
T2 construct: human Ero1β, mature, residues Q34-R467, natural D129V and H465Q variant; also called CCAA (h.a.); source: E. coli BL21(DE3)ΔtrxAΔtrxC with CyDisCo (Erv1p, PDI) co-expressed; in lysate, and purified
T2 sequence (looked up): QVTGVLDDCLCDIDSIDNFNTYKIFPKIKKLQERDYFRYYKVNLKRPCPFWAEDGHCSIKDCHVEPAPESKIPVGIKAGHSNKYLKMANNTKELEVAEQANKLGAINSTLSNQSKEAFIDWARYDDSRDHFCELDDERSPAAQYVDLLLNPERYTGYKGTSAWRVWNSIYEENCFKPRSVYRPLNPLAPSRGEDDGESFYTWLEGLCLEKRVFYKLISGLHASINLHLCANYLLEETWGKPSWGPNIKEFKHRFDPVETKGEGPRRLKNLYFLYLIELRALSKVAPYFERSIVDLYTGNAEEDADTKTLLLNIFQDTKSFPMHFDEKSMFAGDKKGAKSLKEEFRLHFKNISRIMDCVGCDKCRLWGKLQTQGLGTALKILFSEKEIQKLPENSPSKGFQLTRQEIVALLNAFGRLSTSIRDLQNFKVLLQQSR

[9] = molecular target: B1; assay: pull-down; PDI exchange assay: 1 μM His-tagged Ero1–PDI heterodimer with non-His-tagged PDI, PDI3FLAG or other PDI family member (1:1 or 10:1), 1 h at RT, 20 mM sodium phosphate pH 7.3, 150 mM NaCl; Ni-NTA spin columns with 10 mM imidazole; reducing SDS–PAGE; settings: both partners purified
[10] = molecular target: B2; assay: as above; settings: both partners purified

Binder: B1
binding result [1]: binds | binding result [2]: binds

Binder: B2
binding result [1]: binds | binding result [2]: binds

Binder: B3
acceleration of kcat of oxygen consumption by 10 μM external PDI [3]: 4.8 fold | acceleration of kcat of oxygen consumption by 10 μM external PDI [4]: 7.1 fold

stoichiometry N [5]: ~1 PDI per Ero1 | stoichiometry N [6]: ~1 PDI per Ero1 | stoichiometry N [7]: 1 PDI per Ero1 | stoichiometry N [8]: 1 PDI per Ero1
B4: human protein disulfide isomerase (PDI), wild type, co-expressed CyDisCo component (enzyme)
chain: not shown
notes: human PDI, wild-type codon-optimized gene of the CyDisCo plasmid pMJS205; also called wild-type PDI; source: E. coli BL21(DE3)ΔtrxAΔtrxC, co-expressed with Ero1 from pMJS205; in lysate, and co-purified with His-tagged Ero1

acceleration of kcat of oxygen consumption by 10 μM external PDIp [3]: 3.7 fold
B5: human PDIp, non-tagged (enzyme, UniProt Q13087 22-525, looked up)
chain: QEQGARSPSEEPPEEEIPKEDGILVLSRHTLGLALREHPALLVEFYAPWCGHCQALAPEYSKAAAVLAAESMVVTLAKVDGPAQRELAEEFGVTEYPTLKFFRNGNRTHPEEYTGPRDAEGIAEWLRRRVGPSAMRLEDEAAAQALIGGRDLVVIGFFQDLQDEDVATFLALAQDALDMTFGLTDRPRLFQQFGLTKDTVVLFKKFDEGRADFPVDEELGLDLGDLSRFLVTHSMRLVTEFNSQTSAKIFAARILNHLLLFVNQTLAAHRELLAGFGEAAPRFRGQVLFVVVDVAADNEHVLQYFGLKAEAAPTLRLVNLETTKKYAPVDGGPVTAASITAFCHAVLNGQVKPYLLSQEIPPDWDQRPVKTLVGKNFEQVAFDETKNVFVKFYAPWCTHCKEMAPAWEALAEKYQDHEDIIIAELDATANELDAFAVHGFPTLKYFPAGPGRKVIEYKSTRDLETFSKFLDNGGVLPTEEPPEEPAAPFPEPPANSTMGSKEEL

Binder: B6
ratio of co-purified PDI3FLAG to wild-type PDI (PDI3FLAG added 1:1) [9]: ~1 PDI3FLAG per wild-type PDI | wild-type PDI left in the complex with 10-fold PDI3FLAG, percent of the original [9]: ~10% | ratio of co-purified PDI3FLAG to wild-type PDI (PDI3FLAG added 1:1) [10]: ~1 PDI3FLAG per wild-type PDI | wild-type PDI left in the complex with 10-fold PDI3FLAG, percent of the original [10]: ~10%
